# Results from PMC6915727.
# Target: human Toll-like receptor 5 (TLR5) in stably transfected HEK293 cells (TLR5+) (human) (UniProt O60602)
# Sequence of UniProt O60602 (O60602 21-858): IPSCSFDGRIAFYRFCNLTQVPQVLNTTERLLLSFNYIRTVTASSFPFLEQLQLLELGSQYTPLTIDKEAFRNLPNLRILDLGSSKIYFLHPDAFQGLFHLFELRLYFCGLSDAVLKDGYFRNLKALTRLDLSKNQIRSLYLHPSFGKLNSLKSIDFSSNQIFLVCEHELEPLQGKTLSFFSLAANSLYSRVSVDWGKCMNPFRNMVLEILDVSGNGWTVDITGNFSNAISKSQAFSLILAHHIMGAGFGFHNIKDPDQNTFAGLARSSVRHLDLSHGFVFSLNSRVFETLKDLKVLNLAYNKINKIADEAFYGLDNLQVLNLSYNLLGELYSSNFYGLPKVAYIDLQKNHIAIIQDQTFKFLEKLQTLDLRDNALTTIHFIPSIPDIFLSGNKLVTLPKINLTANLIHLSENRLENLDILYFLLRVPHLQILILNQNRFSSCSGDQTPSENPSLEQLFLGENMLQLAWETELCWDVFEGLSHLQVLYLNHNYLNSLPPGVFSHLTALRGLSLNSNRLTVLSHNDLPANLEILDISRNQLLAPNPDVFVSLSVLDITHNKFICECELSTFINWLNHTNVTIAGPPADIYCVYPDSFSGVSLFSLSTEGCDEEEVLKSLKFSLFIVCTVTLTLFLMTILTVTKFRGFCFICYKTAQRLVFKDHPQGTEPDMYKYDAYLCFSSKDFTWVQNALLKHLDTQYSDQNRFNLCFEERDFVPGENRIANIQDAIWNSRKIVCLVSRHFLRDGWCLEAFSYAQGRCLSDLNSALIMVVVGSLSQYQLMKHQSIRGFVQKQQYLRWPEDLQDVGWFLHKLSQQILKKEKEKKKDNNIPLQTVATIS
substance,measurement,value
"recombinant CagL wild type (CagL^WT), C-terminal His-tag fusion (natural protein)","NF-κB luciferase activity in TLR5+ HEK293 cells, dose-response of recombinant CagL WT (EC50)",0.173 µM
